According to patent publication US20240218024A1, “METHODS AND COMPOSITIONS FOR TREATMENT OF VIRAL INFECTION” (TECHNION RESEARCH & DEVELOPMENT FOUNDATION LIMITED, priority 2021, published 2024):

B1: PCP-3×/MCP-3×: class II slncRNA with three PCP binding sites spaced by non-PCP hairpins (SEQ ID NO: 25) (nucleic acid)
chain: GAGAAACGTTTCGACATTATATGGAATGCGAAAGTGGAACGTAATGGACATGAAGACGATTACGCTTCACACGGAGGATGCGGGAAACATGAAGATCACCCACGCTTAACCATGGATAGGGATCACCCATGTTGCGGTGGTGCGTCAACCAGAGATTTCATATGGGAAACTCTGGGACACGCTGTATTTATACATGAGGATCACCATGTGTGCTTAAATATGGGTAAGTTGACCATTAGGCAACTGTAAGATGCTCCGGTTAATTCCAGTTTATATGGAAACGGAATTGATGTACCGTTGAGCAAGAACACGATTACGGTTCTTCGATTAGATATGGGGTGGGAGGTAGAGGGATTCTCGCGAGAAGA
B2: PCP-4×: class I slncRNA with four PCP binding hairpins (SEQ ID NO: 24) (nucleic acid)
chain: GAGAAACGTTTCGACATTATATGGAATGCGAAACACGGAGGATGCGGGAAACATGAAGATCACTCATGTTCGCTTAACCATGGATAGGGATCACCCATGTTGCGGTGGTGCGTCAACCAGAGATTTCATATGGGAAACTCTGGGACACGCTGTATTTATACATGAGGATCACCATGTGTGCTTAAATATGGGTAATTCCAGTTTATATGGAAACGGAATAAGATTAGATATGGTTTAAACGACAATATATGGATTGCGTTTTGGGGCACGCCGTCTGGTTACTGCGATGGGTGGGAGGTAGAGGGATTCTAAGCTTAAGA
B3: PCP-14×/MCP-15×: class II slncRNA with fourteen PCP binding sites spaced by hairpins that do not bind PCP (SEQ ID NO: 28) (nucleic acid)
chain: GAGAAACGTTTCGACATTATATGGAATGCGAAAGTGGAACGTAATGGACATGAAGACGATTACGCTTCACACGGAGGATGCGGGAAACATGAAGATCACCCATGTTCGCTTAACCATGGATAGGGATCACCCATGTTGCGGTGGTGCGTCAACCAGAGATTTCATATGGGAAACTCTGGGACACGCTGTATTTATACATGAGGATCACCATGTGTGCTTAAATATGGGTAAGTTGACCATTAGGCAACTGTAAGATGCTCCGGTTAATTCCAGTTTATATGGAAACGGAATTGATGTACCGTTGAGCAAGAACACGATTACGGTTCTTCGATTAGATATGGTTTAAACGACAATATATGGATTGCGTTTTGGGGCACGCCGTCTGGAGAAGACCATTAGGCTTCTTTACTGCGACCGCAATAAAAGGAGATTATATGAAATCCCTTTGCGCGCAACCGGGTAGAAGATCACCATTAGGGATCTGTAACTCACGGCGCTATTACGAGTCAATATGGTGACCGTAAAGCTAGGGCATGTGCCAGAAGAGCATTAGCCTTCTCCTTGGTGGGGAAGCGATAAGCACATTATAAGGAATGGCTTAAAGTGGTGCGGCGGGGGACTTGACCATTAGGCAAGTGTGCTAGACCCTGGTCTTTTCGAGAAAATATGGTTTCCGAAAGAACTATACGAAGTGACATGCGAGGATTACCCGCATATGGTGCAAATGGGAGAATTGGAGTAAATATGGTTACCCAATAGGCTAGAGCATGACGGCAGTGAGAATTATCCACTGGTTAGCGGGTTACCGAGATTGCACATTATATGGAATGGCAATTGATTCATGCCGGTCGTTTGTGAGGAGTACCCACAAAATGGGAGGGTGCTATATAACCAGGTTATATGCAACCGGTTAGGCCGTTGTGTTAGTTTAGTTCAGCATTAGCGAACTGTGCAAGACCCGGTGGCTAAGGAGTTTATATGGAAACCCTTAGCCCTCGAGCATGCTAACATGAGGATTACCCATGTGATGGGTTTGAAACGTGCAATTATTTGATATGGCAAAAATTGGGTAGGGCATGGCTGCAGCGTGAGAATTATCCACGCTAGGCTAGAGCATGGCGGTATTGAGTTCGGGTTTGAGATGACCATTAGGCATCTGTGCTAGAGCATGCGAAAACGACATAATATGGTATGCGTTTTGGGGTGCTAGTATACCACATGATGAGCACACATGTATGGGTGGGAGGTAGAGGGATTCTCGCGAGAAGA
B4: PCP-4×/MCP-4×: class II slncRNA with four PCP binding sites spaced by non-PCP hairpins (SEQ ID NO: 26) (nucleic acid)
chain: GAGAAACGTTTCGACATTATATGGAATGCGAAAGTGGAACGTAATGGACATGAAGACGATTACGCTTCACACGGAGGATGCGGGAAACATGAAGATCACCCATGTTCGCTTAACCATGGATAGGGATCACCCATGTTGCGGTGGTGCGTCAACCAGAGATTTCATATGGGAAACTCTGGGACACGCTGTATTTATACATGAGGATCACCATGTGTGCTTAAATATGGGTAAGTTGACCATTAGGCAACTGTAAGATGCTCCGGTTAATTCCAGTTTATATGGAAACGGAATTGATGTACCGTTGAGCAAGAACACGATTACGGTTCTTCGATTAGATATGGTTTAAACGACAATATATGGATTGCGTTTTGGGGCACGCCGTCTGGAGAAGACCATTAGGCTTCTTTACTGCGATGGGTGGGAGGTAGAGGGATTCTCGCGAGAAGAA
B5: PCP-8×: class I slncRNA with eight PCP binding hairpins (SEQ ID NO: 27) (nucleic acid)
chain: GAGAAACGTTTCGACATTATATGGAATGCGAAACACGGAGGATGCGGGAAACATGAAGATCACCCATGTTCGCTTAACCATGGATAGGGATCACCCATGTTGCGGTGGTGCGTCAACCAGAGATTTCATATGGGAAACTCTGGGACACGCTGTATTTATACATGAGGATCACCATGTGTGCTTAAATATGGGTAATTCCAGTTTATATGGAAACGGAATTAGGCTAGAGCATGGCGGTATTGAGTTCGGGTTTGAAACGACAATATATGGATTGCGTTTTGGGGCACGCCGTCTGGAAAGGAGATTATATGAAATCCCTTTGCGCGCAACCGGGTAGATACGAGTCAATATGGTGACCGTACCTTGGTGGGGAAGCGATAAGCACATTATAAGGAATGGCTTAGTGCTAGACCCTGGTCTTTTCGAGAAAATATGGTTTCCGAAAATGGGTGGGAGGTAGAGGGATTCTCGCGAGAAGAA
B6: PCP-3×: class I slncRNA with three PCP binding hairpins (SEQ ID NO: 23) (nucleic acid)
chain: GAGAAACGTTTCGACATTATATGGAATGCGAAACACGGAGGATGCGGGAAACATGAAGATCACTCATGTTCGCTTAACCATGGATAGGGATCACCCATGTTGCGGTGGTGCGTCAACCAGAGATTTCATATGGGAAACTCTGGGACACGCTGTATTTATACATGAGGATCACCATGTGTGCTTAAATATGGGTAATTCCAGTTTATATGGAAACGGA

Experiments:
[1] = Temporal tracking of individual SRNP granules in vitro (burst analysis); type: physicochemical; conditions: SRNP granules with tdPCP-mCherry, 60 minutes tracking
Method: To test whether the synthetic granules display this characteristic, we tracked the fluorescence intensity of each granule in a given field-of-view for 60 minutes. The brightness of each granule was analyzed at every time point using a customized analysis algorithm (see Supplementary Methods). The resulting signals are either decreasing or increasing in overall intensity, and dispersed within them are sharp variations in brightness, that are also either increasing or decreasing. Next, we employed a statistical threshold which flagged these signal variation events, or “signal bursts”, whose amplitude was determined to not be part of the underlying signal distribution (p-value<1e-3) (See Supplementary Methods for definitions of bursts, algorithm details, and relevant numerical controls). The events were classified as either increasing bursts (green), decreasing bursts (red), or non-classified segments (blue), which are segments where molecular movement cannot be discerned from the noise (FIG. 8A). For each detected burst, its amplitude (A intensity) and duration (A time) were measured, in addition to measuring the time between bursts and the order of their appearance. In FIG. 8B the distributions of amplitudes for all three event types were plotted, obtained from ˜156 signal traces, each gathered from a different granule composed of PCP-14×/MCP-15× and tdPCP-mCherry. We observe a bias towards negative burst or shedding events. Assuming an interpretation that fluorescent burst events correspond to insertion and shedding events of slncRNA-CP complexes into or out of the synthetic granules, the amplitude bias towards negative events is consistent with RNA degradation and lack of transcription within the in vitro suspension, leading to a net shedding of slncRNA molecules out of the granules over time.
The tracking data, (x,y,t coordinates of the bright spots centroids), together with the raw microscopy images were fed to a custom built Matlab (The Mathworks, Natick, MA) script designed to normalize the relevant spot data. Normalization was carried out as follows: for each bright spot, a 14-pixel wide sub-frame was extracted from the field of view, with the spot at its center. Each pixel in the sub-frame was classified to one of three categories according to its intensity value. […]
We assume the total fluorescence is comprised of three distinct signal processes: RNP granule fluorescence, background fluorescence and noise. We further assume that background fluorescence is slowly changing, as compared with granule fluorescence which depends on the dynamic and frequent insertion and shedding events occurring in the droplet. […] To identify such shifts in the base-line fluorescence intensity, we use a moving-average filter of 13 points (i.e., 2 minutes) to smooth the data. […]

[2] = In vitro slncRNA and slncRNA-protein granule formation (fluorescence microscopy); type: physicochemical; conditions: for Poisson parameter λ best fit of condensate fluorescence intensity distribution: slncRNA-only condensates
[3] = SRNP granules with tdPCP-mCherry

Molecule	ratio between mean granule fluorescence and mean burst amplitude, red channel (protein) [1]	Poisson parameter λ best fit of condensate fluorescence intensity distribution [2]	further results
B1	approximately equal to that of the green channel		
B2		0	
B3	approximately equal to that of the green channel	3-5	median mCherry fluorescence of SRNP granules, brighter than PCP-4×/MCP-4× granules [2, 3]: ~3 times; median mCherry fluorescence of SRNP granules, brighter than PCP-8× granules [2, 3]: > 2 fold; slncRNA and protein concentrations at which puncta like structures were detected ([2]; SRNP granules with tdPCP-mCherry, both components varied over two orders of magnitude): ≥ 100 ng/µL
B4	approximately equal to that of the green channel		
B5	~2		
B6			formation of fluorescent condensates, slncRNA only ([2]; 8.5 nM slncRNA, granule forming buffer, 1 hour room temperature): no such structures were detected; median mCherry fluorescence of SRNP granules relative to PCP-14×/MCP-15× granules [2, 3]: half as bright; granule formation / colocalization with tdPCP-mCherry ([2]; slncRNA plus 25 nM tdPCP-mCherry): witnessed in the presence of the protein
